Experiments:
human KLK7 = human KLK7 (human, UniProt P49862 30-253, limits assumed); assay: column 6: KLK7 activity assay, 5 nM KLK7
Procedure: KLK7 selectivity assay was performed at room temperature in a 384-well plate (black, low-volume round bottom, Corning #4514) with a final reaction volume of 15 μL. Inhibitor samples were diluted to 3× final concentration in assay buffer (75 mM Tris, pH 8.0, 150 mM NaCl, 0.01% TWEEN® 20). Reactions lacking inhibitor and reactions lacking enzyme were used as 100% and 0% activity controls, respectively. Inhibitor or control samples (5 μL) were added to the plate followed by 5 μL KLK7 (Genentech) in assay buffer at a final concentration of 5 nM. After 30 min, 5 μL of Suc-Leu-Leu-Val-Tyr-AMC (Bachem I-1395, 25 mM stock solution in water) in assay buffer was added at a final concentration of 100 μM. […] Reaction rates (expressed as RFU/s) were calculated by linear regression in the range 2040-4488 seconds. Reaction rates were normalized to the values of the 0% and 100% activity controls and fit with a 4-parameter equation to calculate IC₅₀ values. […]

human KLK4 = human KLK4 (human, UniProt Q9Y5K2 31-254, limits assumed); assay: column 8: KLK4 activity assay, 2 nM KLK4
Sequence of human KLK4 (Q9Y5K2 31-254 limits assumed): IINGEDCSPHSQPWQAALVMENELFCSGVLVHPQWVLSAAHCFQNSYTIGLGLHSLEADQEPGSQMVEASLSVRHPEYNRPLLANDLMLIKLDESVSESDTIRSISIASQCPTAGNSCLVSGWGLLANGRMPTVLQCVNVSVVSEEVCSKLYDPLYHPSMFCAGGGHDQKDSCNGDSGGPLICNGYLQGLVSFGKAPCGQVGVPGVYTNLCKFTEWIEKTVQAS
Procedure: (§1) KLK4 selectivity assay was performed at room temperature in a 384-well plate (black, low-volume round bottom, Corning #4514) with a final reaction volume of 15 μL. Inhibitor samples were diluted to 3× final concentration in assay buffer (75 mM Tris, pH 8.0, 150 mM NaCl, 0.01% TWEEN® 20). Reactions lacking inhibitor and reactions lacking enzyme were used as 100% and 0% activity controls, respectively. Inhibitor or control samples (5 μL) were added to the plate followed by 5 μL KLK4 (R&D Systems, 1719-SE, Lot MSY0116011, activated according to R&D systems protocol) in assay buffer at a final concentration of 2 nM. After 30 minutes, 5 μL of Boc-Val-Pro-Arg-AMC (Bachem I-1120, 31.3 mM stock solution in water) in assay buffer was added at a final concentration of 50 μM. […] Reaction rates (expressed as RFU/s) were calculated by linear regression in the range 510-3570 seconds. Reaction rates were normalized to the values of the 0% and 100% activity controls and fit with a 4-parameter equation to calculate IC₅₀ values. In the case of bivalent inhibitors, the raw IC₅₀ value was multiplied by two.
In FIG. 8, the ability of Spink9.SRE.Fc, mAb1108 or 12 selected anti-KLK5 antibodies to inhibit the proteolysis of the substrate, Boc-VPR-AMC, by human KLK4 was assessed using an enzymatic assay. […] The results were expressed as a percentage of maximum KLK4 activity (% control).

human KLK1 = human KLK1 (human, UniProt P06870 25-262, limits assumed); assay: column 7: KLK1 activity assay, 3 nM KLK1
Sequence of human KLK1 (P06870 25-262 limits assumed): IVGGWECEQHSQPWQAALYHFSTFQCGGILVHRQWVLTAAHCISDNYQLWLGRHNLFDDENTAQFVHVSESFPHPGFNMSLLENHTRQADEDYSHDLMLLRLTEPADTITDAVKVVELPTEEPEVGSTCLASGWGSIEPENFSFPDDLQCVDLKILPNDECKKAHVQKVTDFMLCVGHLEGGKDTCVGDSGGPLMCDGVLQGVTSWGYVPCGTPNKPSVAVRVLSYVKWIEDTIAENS

[1] = target: T1, trypsin isolated from bovine pancreas (bovine, UniProt P00760 24-246); assay: column 9: trypsin activity assay, 0.25 nM trypsin
T1 construct: also called bovine trypsin
T1 sequence (P00760 24-246): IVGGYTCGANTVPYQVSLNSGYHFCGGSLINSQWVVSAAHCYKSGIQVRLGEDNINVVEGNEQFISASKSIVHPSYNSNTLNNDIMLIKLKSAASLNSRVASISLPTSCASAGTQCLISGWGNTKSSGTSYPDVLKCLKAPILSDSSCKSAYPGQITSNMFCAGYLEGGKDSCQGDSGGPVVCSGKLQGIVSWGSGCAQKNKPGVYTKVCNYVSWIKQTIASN
Procedure: 0.25 nM trypsin isolated from bovine pancreas and 0.19-100 nM anti-KLK5 inhibitors were pre-incubated for 30 minutes prior to addition of 50 μM Boc-VPR-AMC. […] The results for the KLK5 inhibitors are depicted as follows: FIG. 9A: Spink9.SRE.Fc, FIG. 9B: mAb1108, FIG. 9C: 3-3F5, FIG. 9D: 10C8, FIG. 9E: 9B6, FIG. 9F: 9F2, FIG. 9G: 9H3, FIG. 9H: 9H5, FIG. 9I: 8B7, FIG. 9J: 2B11, FIG. 9K: 8F5, FIG. 9L: 10C5, FIG. 9M: 10H3 and FIG. 9N: 2-3F4.
as §1, with “Trypsin selectivity” for “KLK4 selectivity”, “μL trypsin (Sigma Aldrich T8003,” for “μL KLK4 (R&D Systems, 1719-SE,”, “Lot SLBM2321V, 42.0 μM stock solution in 1 mM HCl)” for “Lot MSY0116011, activated according to R&D systems protocol)”, “of 0.25” for “of 2”, “range 204-3570” for “range 510-3570”

Measured: IC50

Sequence of human KLK7 (P49862 30-253 limits assumed): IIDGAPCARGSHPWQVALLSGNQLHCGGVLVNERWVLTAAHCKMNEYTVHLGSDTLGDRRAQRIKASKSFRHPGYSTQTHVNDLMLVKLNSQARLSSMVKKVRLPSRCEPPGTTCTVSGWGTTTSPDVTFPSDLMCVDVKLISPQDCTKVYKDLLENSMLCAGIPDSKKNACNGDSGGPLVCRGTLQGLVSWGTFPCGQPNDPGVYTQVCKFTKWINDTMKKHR

B1: 2B11 (antibody, V domains shown)
VH: QSVKESEGGLFKPTDTLTLTCTVSGFSLINYGVSWVRQAPGKGLEWIGYIGSAGSTYYATWAKSRATITRNTNLNTVTLKMTSLTAADTATYFCARAAYSAGSADAEDIWGPGTLVTVSS
VL: AYYMTQTPASVEAAVGGTVTIKCQASQSISNYVAWYQQKPGQPPKLLIYRASTLASGVSSRFSGSGSGTEFTLTISDLECADAATYYCHQGYSSSNVDNIFGGGTEVVVK
> 0.1 µM: all assays above

B2: 2-3F4 (antibody, V domains shown)
VH: QSVEESRGGLIKPTDTLTLTCTASGFSLSNYGVSWVRQAPGNGLEYIGFIGYGGSTYYASWAKSRSTITRNTNLNTVTLQMTSLTAADTATYFCARLCGVDCADALDSWGPGTLVTVSS
VL: AYYMTQTPASVEVAVGGTVTIKCQASEDIGSYCSWYQQKPGQPPKLLIYDASDLASGVPSRFKGSGSGTDFTLTISGVQCDDAATYYCQQDYTGNNVDNTFGGGSEVVVK
> 0.1 µM: all assays above

B3: 10H3 (antibody, V domains shown)
VH: QSVKESEGGLIKPTDTLTLTCTVSGFSLSTFAINWVRQAPGNGLEWIGAIGRGGSAYYASWAKSRSTITKNTNLNTVTLKMTRPTAADTATYFCARENAGSGWGELDIWGPGTLVTVSS
VL: AYEMTQTPASVEVAVGGTVTINCQASESISSDLAWYQQKPGQRPKLLIYAASTLASGVPSRFKGSGSGTEFTLSISGVQCADAATYYCQQGYTWNNVDNVFGGGTEVVVK
notes: also called KLK5.10H3 (complex sample)
> 0.1 µM: all assays above

B4: 9B6 (antibody, V domains shown)
VH: QSVKESEGGLFKPTDNLTLTCTVSGFSLSNYGVTWVRQAPGNGLEYIGFIGSGGSAYYASWAKSRSTITRNTNLNTVTLKMTSLTAADTATYFCARDDVGGGKSLDIWGPGTLVTVSS
VL: NIVMTQTPASVEVAVGGTVVIKCQASQNIGDYLSWYQQKPGQRPKLLIYSASTLASGVPSRFKGSGSGTQFTLTISDLECADAATYYCHQDYTSNDVENTFGGGTEVVVK
> 0.1 µM: all assays above

B5: 9H5 (antibody, V domains shown)
VH: QSVKESEGGLFKPTDNLTLTCTVSGFSLSSYGVSWVRQAPGNGLEYIGFIGSGGFAYYASWAKSRSTITRNTNLNTVTLKMTSLTAADTATYFCARDDVGGGKSLDIWGPGTVVTVSV
VL: NIVMTQTPASVEAAVGGTVTINCQASQSISSYLSWYQQKSGQRPKLLIFSASTLASGVPSRFTGSGSGTQFTLTISDLQCADAATYYCHQDYTSSNVDNTFGGGTEVVVK
notes: Rabbit monoclonal; also called Chimeric 9H5; KLK5.9H5 (complex sample)
> 0.1 µM: all assays above

B6: 9H3 (antibody, V domains shown)
VH: QSVKESEGGLFKPTDTLTLTCTVSGFSLSGYGVSWVRQAPGKGLEYIGFIGSGGSAYYASWAKSRSTITRNTNLNTVTLKMTRLTAADTATYFCARDNVGGDMSLDIWGPGTLVTVSS
VL: DIVMTQTPASVSEPVGGTVTIKCQASQNINNYLSWYQQKPGQPPKQLIYAASTLASGVPSRFKGSGSGTQFTLTISDLECADAATYYCHQDYTSNNVDNTFGGGTEVVVK
> 0.1 µM: all assays above

B7: 10C8 (antibody, V domains shown)
VH: QSVKESEGGLFKPTDNLTLTCTVSGFSLSSYGVSWVRQAPGNGLEYIGFIGSGGFAYYASWAKSRSTITRNTNLNTVTLKMTSLTAADTATYFCARDDVGGGRSLDIWGPGTVVTVSS
VL: NIVMTQTPASVEVAMGGTVIIKCQASQSISTYLSWYQQKPGQPPKLLIYSASTLASGVSSRFEGSGSGTQFTLTISGVQCADAATYYCHQDYTSNNVDNTFGGGTEVVVK
> 0.1 µM: all assays above

B8: 8B7 (antibody, V domains shown)
VH: QSVKESEGGLFKPTDNLTLTCTVSGFSLSNYGVTWVRQAPGNGLEYIGFIGSSGSAYYASWAKSRSTITRNTNLNTVTLKMTSLTAADTATYFCARDDVGGGKSLDIWGPGTLVTVSS
VL: NIVMTQTPASVEVAVGGTVTIKCQASQSIGSYLSWYQQKPGQPPKLLIYDASNLASGVPSRFKGSGSGTQFTLSISDLECADAATYYCHQDYTSNNVDNTFGGGTEVVIK
> 0.1 µM: all assays above

B9: 9F2 (antibody, V domains shown)
VH: QSVKESEGGLFKPTDNLTLTCTVSGFSLSSYGVSWVRQAPGNGLEYIGFIGSGGSPYYASWAKSRSTITRNTNLNTVTLKMTSLTAADTATYFCARDDVGGGKSLDIWGPGTLVTVSS
VL: NIVMTQTPASVEVAVGGTVIIKCQASQSISNYLSWYHQKSGQRPRLLIYSASTLASGVPSRFKGSGSGTQFTLTISDLECADAATYYCHQDYTSNSVDNTFGGGTEVVVK
> 0.1 µM: all assays above

B10: 8F5 (antibody, V domains shown)
VH: QSVKESEGGLFKPTDTLTLTCTVSGFSLSSYPISWVRQAPGNGLEWIGYITSEYGVAYYATWAESRSTITRNTNLNTVTLKMTSLTAADTATYFCVRENPTYGYAYDAWGPGTLVTVSS
VL: AYDLTQTPASVEAAVGGTVTINCQASESIGNELSWYQQKSGQPPKLLIYQASTLASGVPSRFKGSGSGTDFTLTISDLECADAATYYCAQGFSSSGVENVFGGGTEVVVK
> 0.1 µM: all assays above

B11: 10C5 (antibody, V domains shown)
VH: QSLEESGGGLVKPTDTLTLTCTVSGFSLSSYGVTWVRQAPGRGLEWIGYITSNYGVSYYASWAKSRSTITRNTNLNTVTLKMTSLTAADTATYFCARENPDYGYAYDAWGPGTLVTVSV
VL: AYDMTQTPASLEAAVGGTVTINCQASESISNELSWYQQKPGQPPDLLIYYASTLASGVPSRFKGSGSGTEFTLTISDLECADAATYYCAQGFGSSGVENVFGGGTEVVVK
notes: Rabbit monoclonal; also called Chimeric 10C5; KLK5.10C5 (complex sample)
> 0.1 µM: all assays above

From patent publication US20200040103A1 (Genentech, published 2020)
